# Assay results reported in patent US7790845B2, “Bacterial ion channel” (Children's Medical Center Corporation, priority 2001, dated 2010).
# Read-outs that look alike come from different tables or passages of the source. Marks after values point to notes of the source that are not given here.
# Key:
# Format in all cases: cell-based
# NaChBac = NaChBac (Halalkalibacterium halodurans (Bacillus halodurans), UniProt Q9KCR8, S273L); experiment: cell-based
# [1] = test system: CHO-K1 cells or COS-7 cells; experiment: Ca2+/Na+ selectivity of wt and mutant NaChBac, reversal potential under bi-ionic conditions (Example 2); settings: for PCa/PNa: external solution 80 NMDG-Cl, 50 CaCl2, 20 HEPES
# Protocol: (§1) Unless otherwise stated, the pipette solution contained (in mM); 147 Cs, 120 methanesulfonate, 8 NaCl, 10 EGTA, 2 Mg^2+-adenosine triphosphate, and 20 HEPES (pH 7.4). Bath solution contained (in mM); 140 NaCl, 10 CaCl2, 5 KCl, 10 HEPES (pH 7.4), and 10 glucose. For some experiments, NaCl was isotonically replaced by CaCl2.
# For reversal potential measurements to determine the relative permeabilities of Na^+ and Ca^2+, the internal pipette solution contained (in mM): 100 mM Na-Gluconate, 10 NaCl, 10 EGTA, 20 HEPES-Na (pH 7.4 adjusted with NaOH, [Na^+]total=140). The external solution was (in mM): 140 NMDG-Cl, 10 CaCl2, 20 HEPES (pH 7.4 adjusted with HCl) or 80 NMDG-Cl, 50 CaCl2, and 20 HEPES. The fast kinetics and small current amplitude of SKM1 in 10 mM [Ca^2+]o necessitated the use of 50 mM [Ca^2+]o for accurate determination of Erev. The permeability ratio of Ca2+ was estimated according to the following equation: PCa/Px=asi(exp(ErevF/RT)[(exp(ErevF/RT)+1]/(4ase) where R, T, F, and Erev are the gas constant, absolute temperature, Faraday constant, and reversal potential, respectively, and x represents Cs^+ or Na^+ (i, internal; e, external) (Hille 2001). For calculations of membrane permeability, activity coefficients for Ca^2+, Cs^+ and Na^+ were estimated as follows: as=γs[Xs] where activity, as, is the effective concentration of an ion in solution, s related to the nominal concentration [Xs] by the activity coefficient, γs·γs was calculated from the Debye-Hückel equation: log γs=−0.51*zs^2√μ/[1+3.8ασ√μ] where μ is the ionic strength of the solution, zs is the charge on the ion, and αs is the effective diameter of the hydrated ion in nanometers (nm). The calculated activity coefficients were γ(Cs)i=0.70, γ(Ca)e=0.331, γ(Na)i=0.75 and γ(Na)e=0.73. The liquid junction potentials were measured using a salt bridge as described by Neher (Neher 1992) and these measurements agreed within 3 mV to those calculated by the JPCalc program (P. Barry) within Clampex (Axon Instruments, Union City, Calif.).
# Reversal potentials of the NaChBac mutants were measured under bi-ionic conditions as described in the Methods. […] The average peak current amplitude measured at 0 mV obtained in 10 mM Ca^2+ Tyrode's solution or in 105 mM Ca^2+ solution is shown in FIG. 7B and normalized to the current amplitude measured in 10 mM Ca^2+ solution (FIG. 7C).
# Relative permeability (PCa/PNa) was calculated as described in the Methods and Table 1. Since PCa/PNa had not been described for native Nav channels under these specific conditions, we also measured the relative permeability for SKM1, a skeletal muscle Na^+-selective channel (SKM1; Kraner, Rich et al. 1998) was expressed in COS and CHO cells and examined under identical conditions as NaChBac and similar to its mutants; Table 1).
# CHO-K1 or COS-7 cells [2] = experiment: Whole-cell current, activation, inactivation and recovery of NaChBac (Example 1)
# [3] = test system: CHO-K1 cells or COS-7 cells; experiment: Expression, voltage- and time-dependence of wt and mutant NaChBac (Example 2)
# Excerpt: NaChBac was cloned from Bacillus halodurans C-125 DNA by the polymerase chain reaction (PCR; BAB05220) (Ren, Navarro et al. 2001). The NaChBac construct containing an open reading frame of 274 amino acid residues was subcloned into a pTracer-CMV2 vector (Invitrogen, Carlsbad, Calif.) containing enhanced green fluorescent protein (eGFP). The skeletal muscle Na^+ channel SKM1 (M26643) was used in comparison to NaChBac under identical recording conditions and determinations of permeability ratios. Mutations were introduced into the NaChBac cDNA by site-directed mutagenesis (Quickchange™ site-directed mutagenesis kit; Stratagene; La Jolla, Calif.). All mutations were confirmed by DNA sequencing and restriction digestion. Wild-type NaChBac and mutant cDNAs were transfected into CHO-K1 cells or COS-7 cells with LipofectAMINE 2000 (Life Technologies, Rockville, Md.). Transfected cells were identified by fluorescence microscopy and membrane currents were recorded 24 to 48 hours after transfection.
# as §1
# The voltage dependence of NaChBac and mutants channel activation was determined from a holding potential of −100 mV. Instantaneous tail current were measured at −100 mV after a test potential of 40 ms duration. Normalized tail current amplitude was plotted vs. test potentials and fitted with a Boltzmann function. Measurements of steady state inactivation for NaChBac and mutants channel were resolved using 2 s prepulses and 1 s test pulse to −10 mV, 0 mV or +20 mV depending on the mutant's peak voltage. Cells were held at −100 mV for 20 s between pulses to allow the recovery from inactivation. Normalized test current amplitude was plotted vs. prepulse potential and fitted with a Boltzmann function. The activation and steady state inactivation curve were fitted by the Boltzmann equation: I=Imax−(Imax−Imin)/(1+exp((V−V1/2)/k)) where Imax and Imin are the maximum and minimum current values, V is the test voltage, V1/2 is the voltage activation midpoint and k is the slope factor.
# Whole-cell currents were recorded using an Axopatch 200B (Axon Instruments, Union City, Calif.) amplifier. Data were digitized at 10 or 20 kHz, and digitally filtered off-line at 1 kHz. Patch electrodes were pulled from borosilicate glass and had resistances of 2-5 MΩ. All experiments were conducted at 22°±2° C. For CHO cells, cell capacitance was 7.6±0.3 pF and for COS-7 cells was 13.9±0.6 pF. […] Series resistance (Rs) was compensated up to 90% to reduce all series resistance errors to <5 mV. Cells in which […] were discarded. Pooled data are presented as means±SEM. Statistical comparisons were made using two-way analysis of variance (ANOVA) and two-tailed t-test with Bonferroni correction; P<0.05 indicated statistical significance.
# CHO-K1 or COS-7 cells [4] = experiment: Single channel properties of NaChBac, inside-out patch
# Excerpt: The single channel properties of NaChBac were studied in the inside-out patch configuration. Solutions were the same as used in whole-cell recording except that the pipette and bath solutions were reversed. The unitary single channel conductance was best fit with a slope of 12 pS±1 pS (n=7 cells). Consistent with the whole-cell current, single channels were activated by depolarization and both open and closed times varied as a function of voltage (not shown). An ensemble average of single channel currents from 5 cells resembled whole cell INaChBac with τact=10±3.5 ms and τinact=203±43 ms (FIG. 2D).
# CHO-K1 or COS-7 cells [5] = experiment: Ion selectivity and relative permeability of NaChBac (Example 1)
# Excerpt: The internal pipette solution used in determining the relative permeability of K^+ and Ca^2+ contained (in mM) 133 Cs-methanesulfonate, 5 CsCl, 10 EGTA, 10 HEPES (pH adjust to 7.2 with CsOH). External solution for K^+ permeability experiments contained 142 KCl, 10 HEPES, 10 glucose (pH 7.3 adjusted with KOH). External solution for Ca^+ permeability determinations contained 105 CaCl2, 10 HEPES, 20 glucose (pH 7.3, adjusted with Ca(OH2). The external solution used to study Ma^+ permeability contained (in mM): 140 NaCl, 5CsCl, 10 HEPES, 10 glucose (pH 7.3, adjusted with NaOH). Internal solutions were the same as described in the Detection of Current example. The relative permeability of Cs^+ versus Na^+ was calculated according to: PCs/PNa=([Na]o−[Na]iexp(ErevF/RT)/([Cs]iexp(Erev/RT)/([Cs]o) (1)
# The relative permeabilities of K^+ and Ca^2+ were evaluated under bi-ionic conditions, and the relative permeability of K^+ and Ca^2+ to Cs^+ was calculated according to the following equations: Pk/PCs=[Cs]iexp(ErevF/RT)/[K]o (2) PCa/Pcs=([Cs]iexp(ErevF/RT){exp(ErevR/RT)+1}/4[Ca]o) (3)
# INaChBac was weakly permeant to Ca^2+; no significant difference in current was observed by sequential perfusion with bath solution containing 1 and 10 mM [Ca^2+]o (FIG. 3B). In isotonic [Ca^2+]o (cations replaced with 105 mM Ca^2), in the inward current was <6% of that in normal [Na^+] (7.6±0.9 pA/pF at −10 mV, n=8; FIG. 3B). In contrast, INaChBac, amplitude correlated well with [Na^+]o (FIG. 3C, D). […] To estimate the relative ion selectivity of the channel, we measured changes in reversal potential while changing ionic composition. The calculated relative selectivity (±SEM) of NaChBac based on measured Erev was: PNa/PCa=72±10 (n=12); PNa/PCs=383±56(n=8); PNa/PK=171±16(n=8). INaCahBac selectivity for Na^+ is at least as high as traditional Nav channels (1, 14).
# [6] = calculated from measured Erev, n=8
molecule,measurement,setting,value
COCC(=O)O[C@]1(CCN(C)CCCc2nc3ccccc3[nH]2)CCc2cc(F)ccc2[C@@H]1C(C)C [mibefradil],IC50,NaChBac,22 µM
same,sensitivity of INaChBac to the blocker (figure legend),NaChBac,relatively insensitive
[Co+2] [Co^2+],reduction of the channel current,NaChBac,reduced the channel current to various degrees
[Ni+2] [Ni^2+],IC50,NaChBac; read-out: concentration of agent needed to block INaChBac by 50% (IC50),720 µM
ω-Conotoxin GVIA,block of INaChBac,NaChBac,ineffective
COCCOC(=O)C1=C(C)NC(C)=C(C(=O)OC(C)C)C1c1cccc([N+](=O)[O-])c1 (stereo not drawn) [nimodipine],IC50,NaChBac,1 µM
"SKM1: skeletal muscle Na+ channel SKM1 (M26643), used in comparison to NaChBac [reference compound]",PCa/PNa,[1],0.32 ± 0.07 (n = 8)^c
ω-Agatoxin IVA,block of INaChBac,NaChBac,ineffective
"NC1=N[C@H](O)[C@H]2[C@H]3O[C@]4(O)O[C@@H]([C@@H](O)[C@@]2(N1)[C@@H]4O)[C@]3(O)CO [tetrodotoxin, Tetrodotoxin]",block of INaChBac,NaChBac,completely insensitive
same,sensitivity of INaChBac to the blocker (figure legend),NaChBac,insensitive
"COC(=O)C1=C(C)NC(C)=C(C(=O)OC)C1c1ccccc1[N+](=O)[O-] [nifedipine, Nifedipine]",IC50,NaChBac,2.2 µM
[Cd+2] [Cd^2+],reduction of the channel current,NaChBac,reduced the channel current to various degrees
"NaChBac: bacterial voltage-sensitive Na+-selective ion channel from Bacillus halodurans, 274 amino acids, SEQ ID NO: 1; pore residues 190-195 LESWAS (protein, Bacillus Halodurans, pore residues 190-195 LESWAS) MKMEARQKQNSFTSKMQKIVNHRAFTFTVIALILFNALIVGIETYPRIYADHKWLFYRIDLVLLWIFTIEIAMRFLASNPKSAFFRSSWNWFDFLIVAAGHIFAGAQFVTVLRILRVLRVLRAISVVPSLRRLVDALVMTIPALGNILILMSIFFYIFAVIGTMLFQHVSPEYFGNLQLSLLTLFQVVTLESWASGVMRPIFAEVPWSWLYFVSFVLIGTFIIFNLFIGVIVNNVEKAELTDNEEDGEADGLKQEISALRKDVAELKSLLKQLK",current in 10 mM Ca2+/NMDG solution compared to 10 mM Ca2+ solution with Na+,[1],almost undetectable
same,current on replacing 140 mM Na+/10 mM Ca2+ solution by isotonic (105 mM) Ca2+ solution,[1],practically undetectable
same,PCa/PNa,[1]; listed as wt NaChBac,0.15
same,current in 10 mM Ca2+/NMDG solution compared to 10 mM Ca2+ solution with Na+,[1]; listed as wt NaChBac,virtually eliminated
same,voltage of 50% steady-state inactivation,CHO-K1 or COS-7 cells [2],−40 mV
same,activation τ,"CHO-K1 or COS-7 cells [2]; at −10 mV, n=32",12.9 ± 0.4 ms
same,inactivation τ,"CHO-K1 or COS-7 cells [2]; at −10 mV, n=32",166 ± 13 ms
same,reversal potential of INaChBac,"CHO-K1 or COS-7 cells [2]; whole-cell, ENa=+72 mV",+70 mV
same,current in COS-7 cells relative to CHO-K1 cells,[3],4 to 6 times
same,GFP expressing/transfected cells with substantial or detectable currents,[3]; 24-48 hours after transfection,More than 98%
same,V1/2 act,[3]; Boltzmann fit of tail currents,−22 mV
same,τact,[3]; membrane voltage −10 mV,12.9 ± 0.4^a ms
same,τinact,[3]; membrane voltage −10 mV,166.0 ± 13^a ms
same,kact,[3]; slope factor of activation,7 mV/e fold
same,V1/2 inact,"[3]; steady state inactivation, 2 s prepulses",−40 mV
same,τact of ensemble average of single channel currents,CHO-K1 or COS-7 cells [4]; 5 cells,10 ± 3.5 ms
same,τinact of ensemble average of single channel currents,CHO-K1 or COS-7 cells [4]; 5 cells,203 ± 43 ms
same,unitary single channel conductance,"CHO-K1 or COS-7 cells [4]; inside-out patch, n=7 cells",12 pS
same,slope of Erev as a function of [Na+]o,CHO-K1 or COS-7 cells [5],57.8 mV/decade
same,inward current in isotonic [Ca2+]o relative to that in normal [Na+],CHO-K1 or COS-7 cells [5]; 105 mM Ca2+,< 6%
same,peak current,CHO-K1 or COS-7 cells [5]; 140 mM [Na+]o/1 mM [Ca2+]o,1430 pA
same,current density,"CHO-K1 or COS-7 cells [5]; 140 mM [Na+]o/1 mM [Ca2+]o, n=8",135.9±11 pA/pF
same,relative selectivity PNa/PCs,CHO-K1 or COS-7 cells [5]; [6],383±56
same,relative selectivity PNa/PK,CHO-K1 or COS-7 cells [5]; [6],171±16
same,relative selectivity PNa/PCa,"CHO-K1 or COS-7 cells [5]; calculated from measured Erev, n=12",72±10
same,peak current,CHO-K1 or COS-7 cells [5]; isotonic [Ca2+]o,87 pA
same,current density,"CHO-K1 or COS-7 cells [5]; isotonic [Ca2+]o (105 mM Ca2+), −10 mV, n=8",7.6±0.9 pA/pF
